Experimental data from US20250352661A1 (MYTHIC THERAPEUTICS, published 2025).
Numbering of substitutions follows the chain as printed. In names and notes the source's numbering stands.

T1: Human LRRC15 Protein, His Tag (Acro Biosystems) (human, UniProt Q8TF66 22-538, limits assumed)
T1 construct: Bought protein with His tag
T1 sequence (looked up): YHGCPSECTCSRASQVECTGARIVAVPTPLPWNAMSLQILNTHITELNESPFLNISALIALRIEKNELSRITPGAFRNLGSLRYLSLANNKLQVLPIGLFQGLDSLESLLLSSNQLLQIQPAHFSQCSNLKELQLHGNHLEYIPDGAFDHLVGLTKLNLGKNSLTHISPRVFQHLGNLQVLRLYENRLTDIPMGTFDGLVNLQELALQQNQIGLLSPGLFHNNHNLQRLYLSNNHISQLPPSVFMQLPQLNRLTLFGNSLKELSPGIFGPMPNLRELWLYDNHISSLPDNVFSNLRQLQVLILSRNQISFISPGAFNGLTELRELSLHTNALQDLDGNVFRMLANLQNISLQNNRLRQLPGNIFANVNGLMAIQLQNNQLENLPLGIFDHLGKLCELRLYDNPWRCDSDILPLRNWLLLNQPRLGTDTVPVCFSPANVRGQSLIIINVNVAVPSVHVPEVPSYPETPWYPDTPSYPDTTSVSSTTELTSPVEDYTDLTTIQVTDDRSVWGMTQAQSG

B1: MYT5742 (antibody, V domains shown)
VH: QQQLVESGGGLVKPGASLTLTCKASGFSFSGSYWICWVRQAPGKGLEWIGCINGGSLDITYYASWAKGRFTISKASSTTVTLQKTSLTAADTATYFCASDTSYTAYGNFYFNLWGPGTLVTVSS
VL: AQVLTQTASPVSAAVGGTVTINCQSSQSVLNNNWLAWYQQKPGQPPKLLIYDASSLASGVPSRFKGSGSGTQFTLTISDLESDDAATYYCQGEFSCGSADCNAFGGGTEVVVKG
notes: Parent of the rabbit 24D9 scan; chimeric, rabbit variable domains with human constant regions; also called 24D9; chimeric 24D9 RabMAb
B2: MYT7881 (antibody, V domains shown)
VH: B1 VH with G26H
VL: B1 VL
notes: rabbit 24D9 VH G26H; chimeric, human constant regions
B3: MYT7882 (antibody, V domains shown)
VH: B1 VH with F27H
VL: B1 VL
notes: rabbit 24D9 VH F27H; chimeric, human constant regions
B4: MYT7883 (antibody, V domains shown)
VH: B1 VH with S28H
VL: B1 VL
notes: rabbit 24D9 VH S28H; chimeric, human constant regions
B5: MYT7884 (antibody, V domains shown)
VH: B1 VH with F29H
VL: B1 VL
notes: rabbit 24D9 VH F29H; chimeric, human constant regions
B6: MYT7885 (antibody, V domains shown)
VH: B1 VH with S30H
VL: B1 VL
notes: rabbit 24D9 VH S30H; chimeric, human constant regions
B7: MYT7886 (antibody, V domains shown)
VH: B1 VH with G31H
VL: B1 VL
notes: rabbit 24D9 VH G31H; chimeric, human constant regions
B8: MYT7887 (antibody, V domains shown)
VH: B1 VH with S32H
VL: B1 VL
notes: rabbit 24D9 VH S32H; chimeric, human constant regions
B9: MYT7888 (antibody, V domains shown)
VH: B1 VH with Y33H
VL: B1 VL
notes: rabbit 24D9 VH Y33H; chimeric, human constant regions
B10: MYT7889 (antibody, V domains shown)
VH: B1 VH with W34H
VL: B1 VL
notes: rabbit 24D9 VH W34H; chimeric, human constant regions
B11: MYT7890 (antibody, V domains shown)
VH: B1 VH with I35H
VL: B1 VL
notes: rabbit 24D9 VH I35H; chimeric, human constant regions
B12: MYT7891 (antibody, V domains shown)
VH: B1 VH with C36H, C51S
VL: B1 VL
notes: rabbit 24D9 VH C36H; chimeric, human constant regions
B13: MYT7892 (antibody, V domains shown)
VH: B1 VH with C36S, C51H
VL: B1 VL
notes: rabbit 24D9 VH C51H; chimeric, human constant regions
B14: MYT7893 (antibody, V domains shown)
VH: B1 VH with I52H
VL: B1 VL
notes: rabbit 24D9 VH I52H; chimeric, human constant regions
B15: MYT7894 (antibody, V domains shown)
VH: B1 VH with N53H
VL: B1 VL
notes: rabbit 24D9 VH N53H; chimeric, human constant regions
B16: MYT7895 (antibody, V domains shown)
VH: B1 VH with G54H
VL: B1 VL
notes: rabbit 24D9 VH G54H; chimeric, human constant regions
B17: MYT7896 (antibody, V domains shown)
VH: B1 VH with G55H
VL: B1 VL
notes: rabbit 24D9 VH G55H; chimeric, human constant regions
B18: MYT7897 (antibody, V domains shown)
VH: B1 VH with S56H
VL: B1 VL
notes: rabbit 24D9 VH S56H; chimeric, human constant regions
B19: MYT7898 (antibody, V domains shown)
VH: B1 VH with L57H
VL: B1 VL
notes: rabbit 24D9 VH L57H; chimeric, human constant regions
B20: MYT7899 (antibody, V domains shown)
VH: B1 VH with D58H
VL: B1 VL
notes: rabbit 24D9 VH D58H; chimeric, human constant regions
B21: MYT7900 (antibody, V domains shown)
VH: B1 VH with I59H
VL: B1 VL
notes: rabbit 24D9 VH I59H; chimeric, human constant regions
B22: MYT7901 (antibody, V domains shown)
VH: B1 VH with T60H
VL: B1 VL
notes: rabbit 24D9 VH T60H; chimeric, human constant regions
B23: MYT7902 (antibody, V domains shown)
VH: B1 VH with Y61H
VL: B1 VL
notes: rabbit 24D9 VH Y61H; chimeric, human constant regions
B24: MYT7903 (antibody, V domains shown)
VH: B1 VH with Y62H
VL: B1 VL
notes: rabbit 24D9 VH Y62H; chimeric, human constant regions
B25: MYT7904 (antibody, V domains shown)
VH: B1 VH with A63H
VL: B1 VL
notes: rabbit 24D9 VH A63H; chimeric, human constant regions
B26: MYT7905 (antibody, V domains shown)
VH: B1 VH with S64H
VL: B1 VL
notes: rabbit 24D9 VH S64H; chimeric, human constant regions
B27: MYT7906 (antibody, V domains shown)
VH: B1 VH with W65H
VL: B1 VL
notes: rabbit 24D9 VH W65H; chimeric, human constant regions
B28: MYT7907 (antibody, V domains shown)
VH: B1 VH with A66H
VL: B1 VL
notes: rabbit 24D9 VH A66H; chimeric, human constant regions
B29: MYT7908 (antibody, V domains shown)
VH: B1 VH with K67H
VL: B1 VL
notes: rabbit 24D9 VH K67H; chimeric, human constant regions
B30: MYT7909 (antibody, V domains shown)
VH: B1 VH with G68H
VL: B1 VL
notes: rabbit 24D9 VH G68H; chimeric, human constant regions
B31: MYT7910 (antibody, V domains shown)
VH: B1 VH with A98H
VL: B1 VL
notes: rabbit 24D9 VH A98H; chimeric, human constant regions
B32: MYT7911 (antibody, V domains shown)
VH: B1 VH with S99H
VL: B1 VL
notes: rabbit 24D9 VH S99H; chimeric, human constant regions

Molecular target: T1, Human LRRC15 Protein, His Tag (Acro …)
Assay: BLI; dissociation pH 7.4 black, pH 5.4 grey [1/2); D00013 FIG. 2B (1/2]

Binder | binding result
B1 | binds
B2 | binds
B3 | binds
B4 | binds
B5 | no binding (tested: 50 nM LRRC15)
B6 | binds
B7 | binds
B8 | binds
B9 | binds
B10 | binds
B11 | binds
B12 | binds
B13 | binds
B14 | binds
B15 | binds
B16 | binds

Binder | binding result
B17 | binds
B18 | binds
B19 | binds
B20 | binds
B21 | binds
B22 | binds
B23 | binds
B24 | binds
B25 | binds
B26 | binds
B27 | binds
B28 | binds
B29 | binds
B30 | binds
B31 | binds
B32 | no binding (tested: 50 nM LRRC15)
